Several values for one entry are separate records, joined by “and”; a condition that tells them apart may be missing. Equal entries are not always repeated. Entries after “also recorded” stand apart in the source; their conditions may differ. Where two headings read alike, the source gives them in different places.
How the values were obtained:
[1] = cited from earlier work; for Km: Humerickhouse et al. 2000, read-out: Km (CPT-11 conversion)
[2] = CPT-11 conversion to SN-38, fluorescent HPLC detection, conditioned media of transiently expressed BChE variants; format: biochemical; settings: for Fold improvement in CPT-11 conversion: compared to wild-type butyrylcholinesterase, conditioned media exposed to 20 mM CPT-11 for 72 hours at 37° C., SN-38 by HPLC, conservative values; for CPT-11 conversion to SN-38 (SN-38 formation by HPLC), in words: conditioned media, 20 mM CPT-11, 72 hours, 37° C., versus mock / wild-type
Description: Butyrylcholinesterase variants were assayed for CPT-11 conversion activity using fluorescent High Performance Liquid Chromotography (HPLC) detection of SN-38 formation as described in Dodds and Rivory, Mol. Pharmacol. 56: 1346-1353 (1999), which is incorporated herein by reference. Briefly, conditioned media from transiently expressed BChE variants were exposed to 20 mM CPT-11 for 72 hours at 37° C. and analyzed by HPLC for SN-38 formation (peak at about 4 minutes column retention time).

[3] = BChE-mediated CPT-11 hydrolysis, SN38 quantitated by reverse-phase HPLC with fluorescence detection; Km by Hofstee plot; format: biochemical; settings: for increase in CPT-11 hydrolysis over wild-type BChE: SN38 peak AUC, wild type 20 μg, BChE.4-1 0.05 μg; for improvement in the Km for CPT-11: versus wild-type / native serum BChE
Description: BChE plasmid variants were expressed transiently in the human embryonic kidney cell line 293T and assayed for activity at 72 hours post-transfection. Primary screening of variants was performed by indirect measurement of enzymatic activation of CPT-11 (FIG. 2) in SW48 colon carcinoma cell cytotoxicity assays. […] Functional hits identified in these assays were characterized by sequence analysis of the corresponding DNA from the original preps. […] Enzyme was incubated at 37° C. for 24 hours with CPT-11 over a range of concentrations from 1-80 μM. […] Velocity (v) is in light absorbance units at 540 nm. Substrate concentration [s] is μM CPT-11.
Samples were acidified and resolved by reverse-phase HPLC on a NovaPak C18 column to separate SN38 from unactivated CPT-11. SN38 peak area under the curve (AUC) was used to compare CPT-11 activation by the wild-type enzyme to the optimized BChE.4-1 variant.

In the case of hCE-1, the Km [1] is listed as 43 µM.

In the case of F227A/L286H, the “Fold improvement in CPT-11 conversion” value [2] is reported as >35 fold and the “CPT-11 conversion to SN-38 (SN-38 formation by HPLC), in words” value (shortened to “CPT-11 conversion … in words”) [2] is reported as “increased CPT-11 conversion to SN-38”.

With F227A/L286S the “Fold improvement in CPT-11 conversion” value [2] was >50 fold, the “Fold improvement in CPT-11 conversion” value ([2]; listed as F227A/L268S) was ≥ 50 fold and the “CPT-11 conversion … in words” value [2] was “significant conversion; also recorded: increased CPT-11 conversion to SN-38”.

B1: F227A (protein)
chain: EDDIIIATKNGKVRGMNLTVFGGTVTAFLGIPYAQPPLGRLRFKKPQSLTKWSDIWNATKYANSCCQNIDQSFPGFHGSEMWNPNTDLSEDCLYLNVWIPAPKPKNATVLIWIYGGGFQTGTSSLHVYDGKFLARVERVIVVSMNYRVGALGFLALPGNPEAPGNMGLFDQQLALQWVQKNIAAFGGNPKSVTLFGESAGAASVSLHLLSPGSHSLFTRAILQSGSXNAPWAVTSLYEARNRTLNLAKLTGCSRENETEIIKCLRNKDPQEILLNEAFVVPYGTPLSVNFGPTVDGDFLTDMPDILLELGQFKKTQILVGVNKDEGTAFLVYGAPGFSKDNNSIITRKEFQEGLKIFFPGVSEFGKESILFHYTDWVDDQRPENYREALGDVVGDYNFICPALEFTKKFSEWGNNAFFYYFEHRSSKLPWPEWMGVMHGYEIEFVFGLPLERRDNYTKAEEILSRSIVKRWANFAKYGNPNETQNNSTSWPVFKSTEQKYLTLNTESTRIMTKLRAQQCRFWTSFFPKVLEMTGNIDEAEWEWKAGFHRWNNYMMDWKNQFNDYTSKKESCVGL
modifications: synthetic butyrylcholinesterase variant; VARIANT 227: Xaa = Ala
With B1 the “CPT-11 conversion … in words” value [2] was “produced a small amount of SN-38; also recorded: increased CPT-11 conversion to SN-38”.

B2: 4-1 variant (protein)
chain: EDDIIIATKNGKVRGMNLTVFGGTVTAFLGIPYAQPPLGRLRFKKPQSLTKWSDIWNATKYANSCCQNIDQSFPGFFGSEMWNPNTDLSEDCLYLNVWIPAPKPKNATVLIWIYGGGFQTGTSSLHVYDGKFLARVERVIVVSMNYRVGALGFLALPGNPEAPGNMGLFDQQLALQWVQKNIAAFGGNPKSVTLFGESAGAASVSLHLLSPGSHSLFTRAILQSGSXNAPWAVTSLYEARNRTLNLAKLTGCSRENETEIIKCLRNKDPQEILLNEAFVVPYGTNLSVNFGPTVDGDFLTDMPDILLELGQFKKTQILVGVNKDEGTAFLAYGAPGFSKDNNSIITRKEFQEGLKIFFPGVSEFGKESILFHYTDWVDDQRPENYREALGDVVGDYNFICPALEFTKKFSEWGNNAFFYYFEHRSSKLPWPEWMGVMHGYEIEFVFGLPLERRDNYTKAEEILSRSIVKRWANFAKYGNPNETQNNSTSWPVFKSTEQKYLTLNTESTRIMTKLRAQQCRFWTSFFPKVLEMTGNIDEAEWEWKAGFHRWNNYMMDWKNQFNDYTSKKESCVGL
modifications: synthetic butyrylcholinesterase variant; VARIANT 227: Xaa = Ala
In the case of B2, the Km ([3]; 37° C., 24 hours, CPT-11 1-80 μM, Hofstee plot) is reported as ~7 µM and 6.9 µM, the “increase in CPT-11 hydrolysis over wild-type BChE” value (“increase in CPT-11 hydrolysis” for short) ([3]; 37° C., 24 hours) is reported as > 3000 fold and the “increase in CPT-11 hydrolysis” value ([3]; 37° C., 24 hours, listed as H77F, F227A, P285N, V331A) is reported as “at least a three thousand-fold”. For the same molecule, the “increase in CPT-11 hydrolysis” value ([3]; 37° C., 24 hours, listed as SEQ ID NO: 180) was “at least a three thousand-fold”, the “improvement in the Km for CPT-11” value [3] was 5-6 fold and the “improvement in the Km for CPT-11” value ([3]; listed as BChE variant 4-1) was 5-6 fold and > 5 fold.

B3: F227A/L286W (protein)
chain: EDDIIIATKNGKVRGMNLTVFGGTVTAFLGIPYAQPPLGRLRFKKPQSLTKWSDIWNATKYANSCCQNIDQSFPGFHGSEMWNPNTDLSEDCLYLNVWIPAPKPKNATVLIWIYGGGFQTGTSSLHVYDGKFLARVERVIVVSMNYRVGALGFLALPGNPEAPGNMGLFDQQLALQWVQKNIAAFGGNPKSVTLFGESAGAASVSLHLLSPGSHSLFTRAILQSGSANAPWAVTSLYEARNRTLNLAKLTGCSRENETEIIKCLRNKDPQEILLNEAFVVPYGTPWSVNFGPTVDGDFLTDMPDILLELGQFKKTQILVGVNKDEGTAFLVYGAPGFSKDNNSIITRKEFQEGLKIFFPGVSEFGKESILFHYTDWVDDQRPENYREALGDVVGDYNFICPALEFTKKFSEWGNNAFFYYFEHRSSKLPWPEWMGVMHGYEIEFVFGLPLERRDNYTKAEEILSRSIVKRWANFAKYGNPNETQNNSTSWPVFKSTEQKYLTLNTESTRIMTKLRAQQCRFWTSFFPKVLEMTGNIDEAEWEWKAGFHRWNNYMMDWKNQFNDYTSKKESCVGL
modifications: synthetic butyrylcholinesterase variant
For B3, the “Fold improvement in CPT-11 conversion” value [2] was >42 fold and the “CPT-11 conversion … in words” value [2] was “increased CPT-11 conversion to SN-38”.

B4: F227A/S287P (protein)
chain: EDDIIIATKNGKVRGMNLTVFGGTVTAFLGIPYAQPPLGRLRFKKPQSLTKWSDIWNATKYANSCCQNIDQSFPGFHGSEMWNPNTDLSEDCLYLNVWIPAPKPKNATVLIWIYGGGFQTGTSSLHVYDGKFLARVERVIVVSMNYRVGALGFLALPGNPEAPGNMGLFDQQLALQWVQKNIAAFGGNPKSVTLFGESAGAASVSLHLLSPGSHSLFTRAILQSGSANAPWAVTSLYEARNRTLNLAKLTGCSRENETEIIKCLRNKDPQEILLNEAFVVPYGTPLXVNFGPTVDGDFLTDMPDILLELGQFKKTQILVGVNKDEGTAFLVYGAPGFSKDNNSIITRKEFQEGLKIFFPGVSEFGKESILFHYTDWVDDQRPENYREALGDVVGDYNFICPALEFTKKFSEWGNNAFFYYFEHRSSKLPWPEWMGVMHGYEIEFVFGLPLERRDNYTKAEEILSRSIVKRWANFAKYGNPNETQNNSTSWPVFKSTEQKYLTLNTESTRIMTKLRAQQCRFWTSFFPKVLEMTGNIDEAEWEWKAGFHRWNNYMMDWKNQFNDYTSKKESCVGL
modifications: synthetic butyrylcholinesterase variant; VARIANT 227: Xaa = Ala; VARIANT 287: Xaa = Pr0
With B4 the “Fold improvement in CPT-11 conversion” value [2] was >6 fold and the “CPT-11 conversion … in words” value [2] was “increased CPT-11 conversion to SN-38”.

B5: F227A/T284A (protein)
chain: EDDIIIATKNGKVRGMNLTVFGGTVTAFLGIPYAQPPLGRLRFKKPQSLTKWSDIWNATKYANSCCQNIDQSFPGFHGSEMWNPNTDLSEDCLYLNVWIPAPKPKNATVLIWIYGGGFQTGTSSLHVYDGKFLARVERVIVVSMNYRVGALGFLALPGNPEAPGNMGLFDQQLALQWVQKNIAAFGGNPKSVTLFGESAGAASVSLHLLSPGSHSLFTRAILQSGSXNAPWAVTSLYEARNRTLNLAKLTGCSRENETEIIKCLRNKDPQEILLNEAFVVPYGXPLSVNFGPTVDGDFLTDMPDILLELGQFKKTQILVGVNKDEGTAFLVYGAPGFSKDNNSIITRKEFQEGLKIFFPGVSEFGKESILFHYTDWVDDQRPENYREALGDVVGDYNFICPALEFTKKFSEWGNNAFFYYFEHRSSKLPWPEWMGVMHGYEIEFVFGLPLERRDNYTKAEEILSRSIVKRWANFAKYGNPNETQNNSTSWPVFKSTEQKYLTLNTESTRIMTKLRAQQCRFWTSFFPKVLEMTGNIDEAEWEWKAGFHRWNNYMMDWKNQFNDYTSKKESCVGL
modifications: synthetic butyrylcholinesterase variant; VARIANT 227: Xaa = Ala; VARIANT 284: Xaa = Ala
In the case of B5, the “Fold improvement in CPT-11 conversion” value [2] is reported as >7 fold and the “CPT-11 conversion … in words” value [2] is reported as “increased CPT-11 conversion to SN-38”.

B6: hCE-2 (protein, UniProt O00748 27-559, looked up)
Cocaine esterase: QDSASPIRTTHTGQVLGSLVHVKGANAGVQTFLGIPFAKPPLGPLRFAPPEPPESWSGVRDGTTHPAMCLQDLTAVESEFLSQFNMTFPSDSMSEDCLYLSIYTPAHSHEGSNLPVMVWIHGGALVFGMASLYDGSMLAALENVVVVIIQYRLGVLGFFSTGDKHATGNWGYLDQVAALRWVQQNIAHFGGNPDRVTIFGESAGGTSVSSLVVSPISQGLFHGAIMESGVALLPGLIASSADVISTVVANLSACDQVDSEALVGCLRGKSKEEILAINKPFKMIPGVVDGVFLPRHPQELLASADFQPVPSIVGVNNNEFGWLIPKVMRIYDTQKEMDREASQAALQKMLTLLMLPPTFGDLLREEYIGDNGDPQTLQAQFQEMMADSMFVIPALQVAHFQCSRAPVYFYEFQHQPSWLKNIRPPHMKADHGDELPFVFRSFFGGNYIKFTEEEEQLSRKMMKYWANFARNGNPNGEGLPHWPLFDQEEQYLQLNLQPAVGRALKAHRLQFWKKALPQKIQELEEPEERHTEL
In the case of B6, the “catalytic efficiency relative to hCE-1” value ([1]; CPT-11 conversion) is listed as 60 fold, the Km [1] is listed as 3.4 µM and the “rate of conversion of CPT-11 to SN38 relative to hCE-1” value ([1]; at pharmacologically relevant concentrations of the drug (~1-10 μM)) is listed as 25-30 fold.
